Each block holds one binder with its values, some of them ahead of it.
Experiments:
[1] = molecular target: T1, biotinylated IL-2Rβ ectodomain (C-terminal biotin acceptor peptide and hexahistidine tag) (UniProt P14784 27-240, C-terminally biotinylated on the biotin acceptor peptide (coexpressed BirA ligase)); experiment: yeast display screen, labeling with 5 nM IL-2Rβ and then SAV-PE
T1 construct: range 1-214; Yeast staining reagent; in the second generation screen used as monomer, then detected with SAV-PE; also called tetrameric IL-2Rβ; monomeric IL-2Rβ
T1 sequence: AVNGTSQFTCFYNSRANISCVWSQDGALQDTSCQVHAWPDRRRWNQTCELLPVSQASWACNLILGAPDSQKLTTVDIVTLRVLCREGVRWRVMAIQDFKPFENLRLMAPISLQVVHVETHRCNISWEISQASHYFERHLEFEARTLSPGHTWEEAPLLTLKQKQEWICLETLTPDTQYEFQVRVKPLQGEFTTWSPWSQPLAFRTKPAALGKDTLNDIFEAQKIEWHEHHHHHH
Procedure: Upon conclusion of selections, round four and round five yeast cultures were spread on SD-CAA plates, which yielded individual yeast colonies. 48 individual yeast clones from both rounds were grown in 96-well block format and screened by labeling with 5 nM IL-2Rβ and then SAV-PE.

[2] = molecular target: T2, IL-2Rβ ectodomain (amino acids 1-214), recombinant (UniProt P14784 27-240); experiment: surface plasmon resonance
T2 construct: range 1-214; Used for the SPR and crystal entries; also called IL-2R13; interleukin 2 receptor beta
T2 sequence: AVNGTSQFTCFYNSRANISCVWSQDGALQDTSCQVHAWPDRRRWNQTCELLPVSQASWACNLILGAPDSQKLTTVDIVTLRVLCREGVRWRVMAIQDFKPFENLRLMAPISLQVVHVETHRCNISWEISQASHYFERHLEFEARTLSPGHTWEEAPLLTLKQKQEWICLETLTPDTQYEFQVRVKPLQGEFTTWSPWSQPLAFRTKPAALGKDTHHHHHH

[3] = molecular target: T2, IL-2Rβ ectodomain (amino acids 1-214), …; experiment: method not given; SPR according to Example 10
[4] = molecular target: T2, IL-2Rβ ectodomain (amino acids 1-214), …; experiment: SPR affinities, as told in the structural discussion

binding result [1]: binds
B1: yeast-displayed IL-2 mutein C5 (ligand)
chain: APTSSSTKKTQLQLEHLLLDLQMILNGINNYKNPKLTRMLTFKFYMPKKATELKHLQCLEEELKHLEEVLNLANSKNFHVTPRDVVSNINVFVLELKGSETTFMCEYADETATIVEFLNRWITFCQSIISTLT
notes: Clone of the second generation yeast display library; also called C5 (yeast clone); not shown: yeast surface display fusion partner and linker encoded by vector pCT302

koff [2]: 0.016 s⁻¹ | Kd [3]: 10 nM
B2: IL-2 mutein C5 (ligand)
chain: APTSSSTKKTQLQLEHLLLDLQMILNGINNYKNPKLTRMLTFKFYMPKKATELKHLQCLEEELKHLEEVLNLANSKNFHVTPRDVVSNINVFVLELKGSETTFMCEYADETATIVEFLNRWITFCQSIISTLTHHHHHH

fold affinity gain from wild-type IL-2 [4]: ~300 fold
B3: IL-2 mutein D10 (ligand)
chain: APTSSSTKKTQLQLEHLLLDLQMILNGINNYKNPKLTRMLTFKFYMPKKATELKHLQCLEEELKPLEEVLNLAHSKNFHFDPRDVVSNINVFVLELKGSETTFMCEYADETATIVEFLNRWITFCQSIISTLTHHHHHH
notes: also called IL-2 D10; super-2

Source: patent publication US20190248860A1 (Stanford University, published 2019)
